Measured values taken from patent US20240043504A1 (published 2024).

B1: mAb11006 (antibody, V domains shown)
VH: EVQLVESGGGLVQPGGSLRLSCAASGFIVSRNYMSWVRQAPGKGLEWVSVIYSGGSTFYADSVKGRFTISRHNSKNTLYLQMNSLKAEDTAVYYCARELRGYFDYWGQGTLVTVSS
VL: DIQLTQSPSFLSASVGDRVTITCWASQGISSYLAWYQQKPGKAPKLLIYAASTLQSGVPSRFSGSGSGTEFTLTISSLQPEDFATYYCQLLNSYPYTFGQGTKLEIK
B2: mAb11008 (antibody, V domains shown)
VH: EVQLVESGGGLVQPGGSLRLSCAASGFTVSSNYMTWVRQAPGKGLEWVSVIYSGGSTFYADSVKGRFTISRHNSENTLYLQMNSLRAEDTAVYYCARDLAAAGTDYWGQGALVTVSS
VL: DIQLTQSPSFLSASVGDRVTITCWASQGISSYLAWYQQKPGKAPKLLIYAASTLQSGVPSRFSGSGSGTEFTLTISSLQPDDFATYYCQHLNSYLYTFGQGTKLEIK
B3: mAb10967 (antibody, V domains shown)
VH: EVQLVESGGGLVQPGGSLRLSCAASGFTVSSNYMSWVRQAPGKGLEWVSVIYPGGSTFYADSVKGRFTISRDNSKNTLYLQMNSLRAEDTAVYYCARDQRDFAWGQGTLVTVSS
VL: DIQMTQSPSSLSASVGDRVTITCQASQDISNYLNWYQQKPGKAPKLLIYDASNLETGVPSRFSGSGSGTDFTFTISGLQPEDIATYYCQQYDNLPPTFGQGTRLEIKR
B4: mAb10954 (antibody, V domains shown)
VH: EVQLVESGGGLVQPGGSLRLSCAASGITVSSNYMSWVRQAPGKGLEWVSLIYSGGSTYYADSVKGRFTISRDNSKNTLYLQMNSLRVEDTAVYYCARDHGMAAAGYNYWGQGTLVTVSS
VL: DIQMTQSPSSLSASVGDRVTITCQASQDINKYLNWYQQKPGKAPKLLIYDASNLETGVPSRFSGSGSGTDFTFTINSLQPEDFATYFCQQYDNLPPAFGQGTKVEIKR
B5: mAb10998 (antibody, V domains shown)
VH: EVQLVESGGGLVHPGGSLRLSCAASGLTVSSNYMSWVRQAPGKGLEWVSVIYSGGSTYYADSVKGRFTISRHNSKNTLFLQMNSLRAEDTAVYYCARDRPITGTTLDVWGQGTTVTVSS
VL: DIQMTQSPSSLFASVGDRVTITCRASQSISSYLNWYQQKPGKAPKLLIYAASSLQSGVPSRFSGSGSGTDFTLTISSLQPEDFAFYYCQQTYSTPPITFGQGTRLEIK
B6: mAb10966 (antibody, V domains shown)
VH: EVQLVESGGGLVQPGGSLRLSCAASGLTVSSNYMSWVRQAPGKGLEWVSVIYSGGSTFYADSVKGRFTISRDNSKNTLYLQMNSLRPEDTAVYYCAREGRIAATGYGMDVWGQGTTVTVSS
VL: not shown
B7: mAb11004 (antibody, V domains shown)
VH: QVQLVESGGGVVQPGRSLRLSCVASGFTFSIYGMDWVRQAPGKGLEWVAVISYDGSNKYYADSVKGRFTISRDNSKNTLYLQMNSLRPEDTAVYYCAKDREAAADAFDIWGQGTMVTVSS
VL: DIQMTQSPSSVSASVGDRVTITCRASQGISSWLAWYQQKPGKAPKLLIYAASSLHSGVPSRFSGSGSGTDFTLTISSLQPEDFATYYCQQANSFRLTFGGGTKVEIK
B8: mAb10989 (antibody, V domains shown)
VH: QVQLVQSGAEVKKPGASVKVSCKASGYIFTGYYMHWVRQAPGQGLEWMGWINPNSGGANYAQKFQGRVTLTRDTSITTVYMELSRLRFDDTAVYYCARGSRYDWNQNNWFDPWGQGTLVTVSS
VL: QSALTQPASVSGSPGQSITISCTGTSSDVGTYNYVSWYQQHPGKAPKLMIFDVSNRPSGVSDRFSGSKSGNTASLTISGLQAEDEADYYCSSFTTSSTVVFGGGTKLTVLG
B9: mAb10971 (antibody, V domains shown)
VH: EVQLVESGGGLIQPGGSLRLSCAASGVTVSSNYMSWVRQAPGKGLEWVSVIYSGGSTFYSDSVKGRFSISRDNSKNTLYLQMNSLRAEDTAVYYCARDLYYYGMDVWGQGTTVTVSS
VL: DIQLTQSPSFLSASVGDRVTITCRASQGISTYLAWYQQKPGKAPKLLIYAASTLQSGVPSRFSGSGSGTEFTLTISSLQPEDFATYYCQQLDSYPGLTFGGGTKVEIKR
B10: mAb10957 (antibody, V domains shown)
VH: EVQLVESGGGLVQPGGSLRLSCAASGVTVSSNYMSWVRQAPGKGLEWVSVIYSGGSTFYADSVKGRFTISRDNSKNTLFLQMNSLRIEDTAVYYCARDLGPYGMDVWGQGTTVTVSS
VL: DIQLTQSPSFLSASVGDRVTITCRASQGISSYLAWYQQKPGKAPKLLIYAASTLQSGVPSRFSGSGSGTQFILTISSLQPEDFATYYCQQLNSYPGFTFGPGTKVDIKR
B11: mAb10956 (antibody, V domains shown)
VH: EVQLVESGGGLVQPGGSLRLSCAASGLTVSSNYMSWVRQAPGKGLEWVSVIYSGGSTFYADSVKGRFTISRDNSKNTLYLQMNSLRAEDTAVYYCARDLIKYGMDVWGQGTTVTVSS
VL: not shown
B12: mAb10964 (antibody, V domains shown)
VH: QVQLQESGPGLVKPSETLSLTCTVSGGSINNYYWIWIRQPPGKGLEWIGYIYHSGSTNYNPSLKSRVTISVDTSKNQFSLKVSSVTAADTAVYYCANMVRGVYEDDYWGQGTLVTVSS
VL: DIQMTQSPSSLSASVGDRVTITCRASQSISNYLNWYQQKPGKAPKLLIFAASSLRSGVPSRFSGSGSGTDFTLTISSLHPEDFATYYCQQNYNTPLTFGPGTKVDIKR

Experiments:
[1] = biological target: SARS-CoV-2 (2019-nCoV) Spike Protein (S1 Subunit, Fc Tag) (Sino 40591-V02H) (SARS-CoV-2, UniProt P0DTC2 16-685); experiment: Luminex bead binding, supernatant
[2] = biological target: SARS-CoV-2 (2019-nCoV) Spike Protein (S1 Subunit, His Tag) (Sino 40591-V08H) (SARS-CoV-2, UniProt P0DTC2 16-685); experiment: Luminex bead binding, supernatant
[3] = biological target: SARS-CoV-2 Spike Protein (S1 Subunit, Fc Tag) (Sino 40591-V02H) (SARS-CoV-2, UniProt P0DTC2 16-685); experiment: Luminex, supernatant
[4] = biological target: SARS-CoV-2 Spike Protein (S1 Subunit, His Tag) (Sino 40591-V08H) (SARS-CoV-2, UniProt P0DTC2 16-685); experiment: Luminex, supernatant

Binder	Binding signal (MFI) [1] [MFI]	Binding signal (MFI) [2] [MFI]	MFI [3] [MFI]	MFI [4] [MFI]
B1	2050			
B2	6880	1420		
B3			15800	21900
B4			16600	21300
B5	724	717		
B6			16400	23300
B7	4480	9530		
B8			12300	14200
B9			17000	21600
B10			8450	12000
B11			15000	20000
B12			18600	24200
